Assay results as given in the supplement of paper PMC10724198.
± gives the standard deviation of the averaged measurements.

Tests used:
[1] = system: Saccharomyces cerevisiae; experiment: protein stability index of tFT-peptide fusion (C-terminal peptide) (PSI (0-1 scale)); higher = more stable (slower turnover); conditions: genetic background: wild type; temperature: 30 C
[2] = system: Saccharomyces cerevisiae; experiment: as above
Procedure: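 MPS profiling in S. cerevisiae of the tFT-X12 degron library: putative degron peptides plus stable controls, 12 aa, fused to the C-terminus of a sfGFP-mCherry timer. Cells are FACS-sorted into 8 mCherry/sfGFP bins and deep-sequenced. PSI runs from 0 (unstable) to 1 (stable). Backgrounds are wild type, das1Δ and doa10Δ at 30 °C, and wild type, das1Δ, cdc34-1 and cdc53-1 at 37 °C; 2-3 technical replicates each.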

[3] = genetic background: cdc34-1, temperature: 37 C
[4] = genetic background: cdc53-1, temperature: 37 C
[5] = genetic background: das1 deletion, temperature: 30 C
[6] = genetic background: das1 deletion, temperature: 37 C
[7] = genetic background: doa10 deletion, temperature: 30 C
[8] = genetic background: wild type, temperature: 30 C
[9] = genetic background: wild type, temperature: 37 C
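Note: PSI is a weighted mean of sequencing reads over stability bins, variants kept only with over 10 reads, mCherry proximal and sfGFP distal, peptide attached via GGGS linker.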

| Sequence | protein stability index [1] | protein stability index [2, 3] | protein stability index [2, 4] | protein stability index [2, 5] | protein stability index [2, 6] | protein stability index [2, 7] | protein stability index [2, 8] | protein stability index [2, 9] |
| --- | --- | --- | --- | --- | --- | --- | --- | --- |
| LFLEVCFFRLYF | 0.465 ± 0.032 | 0.511 ± 0.055 | 0.555 ± 0.037 | 0.447 ± 0.032 | 0.54 ± 0.011 | 0.46 ± 0.02 | 0.453 ± 0.032 | 0.5086 ± 0.0018 |
| PSPVRSSYASTL | 0.711 ± 0.049 | 0.6664 ± 0.0066 | 0.704 ± 0.024 | 0.6396 ± 0.0033 | 0.7222 ± 0.0029 | 0.6532 ± 0.0047 | 0.665 ± 0.02 | 0.68992 ± 0.00058 |
| VYCLFLPLGVAF | 0.27 ± 0.027 | 0.115 ± 0.038 | 0.175 ± 0.072 | 0.184 ± 0.02 | 0.248 ± 0.0082 | 0.146 ± 0.016 | 0.171 ± 0.022 | 0.207 ± 0.026 |
| ACEFRFFYVFRC | 0.315 ± 0.008 | 0.304 ± 0.0093 | 0.245 ± 0.016 | 0.31 ± 0.056 | 0.425 ± 0.015 | 0.278 ± 0.0034 | 0.176 ± 0.016 | 0.287 ± 0.034 |
| LCAFLKLFILII | 0.239 ± 0.016 | 0.0906 ± 0.018 | 0.141 ± 0.076 | 0.181 ± 0.051 | 0.325 ± 0.017 | 0.235 ± 0.027 | 0.141 ± 0.045 | 0.23 ± 0.034 |
| LQCVYFVFFICF | 0.399 ± 0.051 | 0.2682 ± 0.0023 | 0.4 ± 0.016 | 0.266 ± 0.018 | 0.412 ± 0.0067 | 0.235 ± 0.0054 | 0.251 ± 0.015 | 0.37 ± 0.032 |
| LHSDHLRIILRI | 0.514 ± 0.023 | 0.5966 ± 0.0013 | 0.63 ± 0.036 | 0.567 ± 0.036 | 0.659 ± 0.036 | 0.382 ± 0.018 | 0.376 ± 0.0098 | 0.576 ± 0.022 |
| YNTRLCTFSCML | 0.755 ± 0.0089 | 0.772 ± 0.013 | 0.8079 ± 0.007 | 0.668 ± 0.033 | 0.7881 ± 0.0015 | 0.657 ± 0.025 | 0.698 ± 0.021 | 0.772 ± 0.011 |
| WRVFRPSLRLFA | 0.393 ± 0.051 | 0.531 ± 0.04 | 0.61 ± 0.018 | 0.467 ± 0.017 | 0.598 ± 0.012 | 0.287 ± 0.0051 | 0.33 ± 0.021 | 0.507 ± 0.036 |
| GVFISFFFVFRF | 0.308 ± 0.013 | 0.154 ± 0.0055 | 0.173 ± 0.037 | 0.269 ± 0.035 | 0.373 ± 0.013 | 0.354 ± 0.017 | 0.237 ± 0.025 | 0.309 ± 0.033 |
| CFYVGFLGYFVF | 0.42 ± 0.0044 | 0.447 ± 0.026 | 0.556 ± 0.005 | 0.357 ± 0.04 | 0.55 ± 0.027 | 0.342 ± 0.0064 | 0.367 ± 0.011 | 0.505 ± 0.014 |
| GGLWRRLCLGVG | 0.329 ± 0.041 | 0.4 ± 0.021 | 0.4633 ± 0.0012 | 0.388 ± 0.018 | 0.469 ± 0.011 | 0.3 ± 0.0089 | 0.311 ± 0.016 | 0.453 ± 0.016 |
| LPPPTPRSVLLN | 0.51 ± 0.076 | 0.644 ± 0.039 | 0.737 ± 0.034 | 0.672 ± 0.019 | 0.732 ± 0.015 | 0.296 ± 0.019 | 0.315 ± 0.04 | 0.5546 ± 0.0016 |
| RRVFPLIIVLLF | 0.202 ± 0.0087 | 0.115 ± 0.023 | 0.152 ± 0.014 | 0.172 ± 0.031 | 0.279 ± 0.016 | 0.174 ± 0.0077 | 0.126 ± 0.022 | 0.221 ± 0.013 |
| FLQIIIFSRVLF | 0.467 ± 0.024 | 0.455 ± 0.013 | 0.543 ± 0.059 | 0.377 ± 0.017 | 0.549 ± 0.0081 | 0.366 ± 0.026 | 0.364 ± 0.031 | 0.52 ± 0.011 |
| LMLIPRLLVGAH | 0.291 ± 0.014 | 0.181 ± 0.034 | 0.172 ± 0.0025 | 0.184 ± 0.029 | 0.2958 ± 0.0022 | 0.152 ± 0.008 | 0.181 ± 0.018 | 0.2523 ± 0.0011 |
| DSPRGRCVRLLV | 0.398 ± 0.03 | 0.66041 ± 1.4e-06 | 0.74745 ± 0.00025 | 0.646 ± 0.013 | 0.741 ± 0.017 | 0.253 ± 0.0077 | 0.308 ± 0.0036 | 0.599 ± 0.067 |
| WRMRCGLIIGLV | 0.183 ± 0.032 | 0.0313 ± 0.0029 | 0.0521 ± 0.023 | 0.155 ± 0.028 | 0.164 ± 0.0025 | 0.1 ± 0.025 | 0.134 ± 0.026 | 0.125 ± 0.018 |
| FSIFFFLLPSSL | 0.464 ± 0.042 | 0.539 ± 0.03 | 0.559 ± 0.0082 | 0.448 ± 0.017 | 0.604 ± 0.0097 | 0.443 ± 0.028 | 0.441 ± 0.025 | 0.5593 ± 0.0021 |
| RPCLSALRFRFF | 0.206 ± 0.015 | 0.68 ± 0.037 | 0.764 ± 0.029 | 0.655 ± 0.042 | 0.727 ± 0.064 | 0.141 ± 0.023 | 0.162 ± 0.026 | 0.3204 ± 0.00076 |

| Sequence | protein stability index [1] | protein stability index [2, 3] | protein stability index [2, 4] | protein stability index [2, 5] | protein stability index [2, 6] | protein stability index [2, 7] | protein stability index [2, 8] | protein stability index [2, 9] |
| --- | --- | --- | --- | --- | --- | --- | --- | --- |
| PSLPPLPPFAAL | 0.749 ± 0.052 | 0.73 ± 0.0098 | 0.7412 ± 0.0013 | 0.676 ± 0.051 | 0.75 ± 0.021 | 0.663 ± 0.0099 | 0.661 ± 0.02 | 0.72 ± 0.024 |
| LLRLPLLALLFV | 0.111 ± 0.0047 | 0.236 ± 0.028 | 0.227 ± 0.0089 | 0.233 ± 0.026 | 0.356 ± 0.0077 | 0.337 ± 0.02 | 0.222 ± 0.033 | 0.324 ± 0.016 |
| IKWRCLFCVCVL | 0.422 ± 0.043 | 0.477 ± 0.011 | 0.466 ± 0.012 | 0.429 ± 0.026 | 0.489 ± 0.0054 | 0.371 ± 0.0045 | 0.375 ± 0.014 | 0.453 ± 0.008 |
| GLRLRCPLLLSL | 0.383 ± 0.028 | 0.354 ± 0.018 | 0.341 ± 0.018 | 0.315 ± 0.049 | 0.47 ± 0.011 | 0.507 ± 0.023 | 0.324 ± 0.013 | 0.425 ± 0.0045 |
| FCSNLLSMVIAV | 0.432 ± 0.014 | 0.344 ± 0.0055 | 0.382 ± 0.014 | 0.32 ± 0.032 | 0.4315 ± 0.0038 | 0.265 ± 0.012 | 0.3 ± 0.012 | 0.438 ± 0.029 |
| CTESVYIIRFML | 0.341 ± 0.084 | 0.638 ± 0.045 | 0.661 ± 0.025 | 0.568 ± 0.025 | 0.662 ± 0.02 | 0.222 ± 0.003 | 0.253 ± 0.035 | 0.466 ± 0.029 |
| KKKKNIKIKKQI | 0.276 ± 0.054 | 0.74 ± 0.17 |  | 0.646 ± 0.034 | 0.711 ± 0.084 | 0.184 ± 0.025 | 0.215 ± 0.023 | 0.336 ± 0.12 |
| VLSCIPRLAIAA | 0.327 ± 0.017 | 0.335 ± 0.01 | 0.372 ± 0.019 | 0.284 ± 0.023 | 0.404 ± 0.008 | 0.235 ± 0.0017 | 0.251 ± 0.0058 | 0.318 ± 0.0072 |
| VLFVRGHTLWLM | 0.505 ± 0.033 | 0.6124 ± 0.0026 | 0.675 ± 0.01 | 0.556 ± 0.024 | 0.702 ± 0.025 | 0.4861 ± 0.0031 | 0.458 ± 0.017 | 0.6344 ± 0.0035 |
| VPASWLRMLAFC | 0.05335 ± 0.00032 | 0.197 ± 0.0024 | 0.578 ± 0.025 | 0.559 ± 0.024 | 0.701 ± 0.047 | 0.0659 ± 0.0043 | 0.0647 ± 0.013 | 0.0629 ± 0.016 |
| LESYGLRDSTSG | 0.621 ± 0.27 | 0.641 ± 0.05 | 0.651 ± 0.032 | 0.638 ± 0.099 | 0.741 ± 0.042 | 0.65 ± 0.0099 | 0.681 ± 0.044 | 0.69 ± 0.018 |
| LFFWFMYLRRLI | 0.172 ± 0.033 | 0.252 ± 0.019 | 0.238 ± 0.0044 | 0.403 ± 0.041 | 0.524 ± 0.11 | 0.22 ± 0.0085 | 0.151 ± 0.01 | 0.164 ± 0.0084 |
| LWAVGVATDWGG | 0.734 ± 0.022 | 0.706 ± 0.018 | 0.7571 ± 0.0035 | 0.684 ± 0.029 | 0.768 ± 0.015 | 0.694 ± 0.021 | 0.689 ± 0.011 | 0.7513 ± 0.0075 |
| PWLLHTPLSLVF | 0.434 ± 0.0077 | 0.321 ± 0.032 | 0.356 ± 0.018 | 0.335 ± 0.017 | 0.403 ± 0.0063 | 0.3182 ± 0.00076 | 0.349 ± 0.0058 | 0.4 ± 0.0051 |
| GPTLLVSRIAVI | 0.249 ± 0.011 | 0.506 ± 0.026 | 0.517 ± 0.024 | 0.368 ± 0.039 | 0.565 ± 0.011 | 0.137 ± 0.0051 | 0.162 ± 0.021 | 0.291 ± 0.015 |
| GLSGFLLLIVLY | 0.353 ± 0.026 | 0.194 ± 0.027 | 0.256 ± 0.019 | 0.239 ± 0.02 | 0.417 ± 0.049 | 0.252 ± 0.0089 | 0.228 ± 0.035 | 0.35509 ± 0.00019 |
| HCLGWCFSRLSS | 0.289 ± 0.012 | 0.654 ± 0.043 | 0.7199 ± 0.00078 | 0.653 ± 0.021 | 0.766 ± 0.0092 | 0.186 ± 0.013 | 0.206 ± 0.027 | 0.4302 ± 0.0015 |
| YFNGLLPLVLVF | 0.0927 ± 0.049 | 0.0299 ± 0.0068 | 0.0434 ± 0.004 | 0.074 ± 0.01 | 0.0623 ± 0.018 | 0.0659 ± 0.018 | 0.0601 ± 0.0082 | 0.0517 ± 0.028 |
| SWFRRPFPPRLL | 0.158 ± 0.094 |  | 0.6 ± 0.025 | 0.606 ± 0.052 | 0.67 ± 0.063 | 0.048 ± 0.068 |  | 0.0127 ± 0.018 |
